In US20020058247A1 (TRIPEP, published 2002):

Legend:
[1] = target: T1, Full length recombinant HBcAg (rHBcAg) encompassing residues 1-183 (hepatitis B virus, UniProt P03146 1-183); test: EIA, support-bound peptide, HBcAg 5 ug/ml
T1 construct: range 1-183; also called hepatitis B virus core antigen

[2] = target: T2, truncated recombinant form of HBeAg containing nine residues of pre-core and the 150 first residues of HBcAg (hepatitis B virus, UniProt P03146 1-150); test: EIA, support-bound peptide, HBeAg 5 ug/ml
T2 construct: domain: nine residues of pre-core;range 1-150; also called hepatitis B virus e antigen

[3] = target: T1, Full length recombinant HBcAg (rHBcAg) …; test: EIA, support-bound peptide, HBcAg 10 ug/ml
[4] = target: T1, Full length recombinant HBcAg (rHBcAg) …; test: EIA, support-bound peptide, HBcAg 20 ug/ml
[5] = target: T2, truncated recombinant form of HBeAg …; test: EIA, support-bound peptide, HBeAg 10 ug/ml
[6] = target: T2, truncated recombinant form of HBeAg …; test: EIA, support-bound peptide, HBeAg 20 ug/ml
[7] = target: T1, Full length recombinant HBcAg (rHBcAg) …; test: EIA, support-bound peptide, HBcAg 2 ug/well
[8] = target: T3, non-structural 3 protein (NS3) of the hepatitis C virus (HCV) (hepatitis C virus); test: EIA, support-bound peptide, HCV NS3 control
T3 construct: Control antigen; also called HCV NS3

[9] = target: T1, Full length recombinant HBcAg (rHBcAg) …; test: EIA, support-bound peptide, HBcAg 2.5 ug/ml
[10] = target: T2, truncated recombinant form of HBeAg …; test: EIA, support-bound peptide, HBeAg 2.5 ug/ml
[11] = target: T1, Full length recombinant HBcAg (rHBcAg) …; test: EIA, support-bound peptide, HBcAg 0.67 ug/ml
[12] = target: T1, Full length recombinant HBcAg (rHBcAg) …; test: EIA, support-bound peptide, HBcAg 1.25 ug/ml
[13] = target: T2, truncated recombinant form of HBeAg …; test: EIA, support-bound peptide, HBeAg 1.25 ug/ml
[14] = target: T1, Full length recombinant HBcAg (rHBcAg) …; test: EIA, peptide coated 25 ug/ml, HBcAg 10 ug/ml
[15] = target: T1, Full length recombinant HBcAg (rHBcAg) …; test: EIA, peptide coated 50 ug/ml, HBcAg 10 ug/ml
[16] = target: T1, Full length recombinant HBcAg (rHBcAg) …; test: EIA, support-bound peptide, HBcAg 0.2 ug/well
[17] = target: T1, Full length recombinant HBcAg (rHBcAg) …; test: EIA, peptide coated 6.25 ug/ml, HBcAg 10 ug/ml
[18] = target: T1, Full length recombinant HBcAg (rHBcAg) …; test: EIA, peptide coated 3.125 ug/ml, HBcAg 10 ug/ml
[19] = target: T1, Full length recombinant HBcAg (rHBcAg) …; test: competition EIA, HBcAg coated 1 ug/ml, peptide 25 ug/ml before mAb 4-2 (competitor); OD of bound mAb
[20] = target: T1, Full length recombinant HBcAg (rHBcAg) …; test: competition EIA, HBcAg coated 1 ug/ml, peptide 50 ug/ml before mAb 4-2 (competitor); OD of bound mAb
[21] = target: T1, Full length recombinant HBcAg (rHBcAg) …; test: competition EIA, HBcAg coated 1 ug/ml, peptide 6.25 ug/ml before mAb 4-2 (competitor); OD of bound mAb
[22] = target: T1, Full length recombinant HBcAg (rHBcAg) …; test: competition EIA, HBcAg coated 5 ug/ml, peptide 200 ug/ml together with mAb 4-2 (competitor); OD of bound mAb
[23] = target: T1, Full length recombinant HBcAg (rHBcAg) …; test: competition EIA, HBcAg coated 5 ug/ml, peptide 12.5 ug/ml together with mAb 4-2 (competitor); OD of bound mAb
[24] = target: T1, Full length recombinant HBcAg (rHBcAg) …; test: competition EIA, HBcAg coated 5 ug/ml, peptide 6.25 ug/ml together with mAb 4-2 (competitor); OD of bound mAb

T2 sequence (P03146 1-150): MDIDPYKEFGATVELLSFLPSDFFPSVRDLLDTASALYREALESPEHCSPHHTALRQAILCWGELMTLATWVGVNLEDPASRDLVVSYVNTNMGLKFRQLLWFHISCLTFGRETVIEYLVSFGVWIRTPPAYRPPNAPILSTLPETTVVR
T1 sequence (P03146 whole entry, the tested form may be a part): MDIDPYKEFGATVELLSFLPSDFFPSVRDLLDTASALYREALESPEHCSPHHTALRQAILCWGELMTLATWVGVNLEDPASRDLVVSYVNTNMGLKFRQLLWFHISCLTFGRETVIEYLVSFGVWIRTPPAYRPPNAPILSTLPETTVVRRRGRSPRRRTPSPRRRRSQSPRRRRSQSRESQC

Row | Binder | OD [1] [OD] | OD [2] [OD] | OD [3] [OD] | OD [4] [OD] | OD [5] [OD] | OD [6] [OD] | OD at 405 nm [7] [OD] | OD at 405 nm [8] [OD] | OD [9] [OD] | OD [10] [OD] | OD [11] [OD] | OD [12] [OD] | OD [13] [OD] | OD [14] [OD] | OD [15] [OD] | OD at 405 nm [16] [OD] | OD [17] [OD] | OD [18] [OD] | OD at 490 nm [19] [OD] | OD at 490 nm [20] [OD] | further results
1 | ISCRASQSVSTSSYSYMHWY [ISCRASQSVSTSSYSYMHWY (SEQ. ID. No. 17)] | 0.633 | 0.132 | 1.15 | 2.66 | 0.246 | 0.687 | 2.48 | 0.156 | 0.252 | 0.102 | 0.039 | 0.117 | 0.056 | 0.636 | 0.569 | 0.449 | 0.63 | 0.413 | 0.439 | 0.402 | OD at 490 nm [21]: 0.37 OD; OD at 490 nm [22]: 1.47 OD; OD at 490 nm [23]: 1.44 OD; OD at 490 nm [24]: 1.26 OD
2 | VKPGASVKLSCKASGYIFTS (also called Peptide # 2; Pept. #2) [VKPGASVKLSCKASGYIFTS (SEQ. ID. No. 5)] | 0.989 | 0.096 | 1.69 | 3.45 | 0.222 | 0.751 | 3.69 | 0.269 | 0.374 | 0.063 | 0.034 | 0.155 | 0.043 | 1.04 | 1.22 | 1.15 | 0.597 | 0.333 | 0.341 | 0.188 | OD at 490 nm [21]: 0.336 OD; OD at 490 nm [22]: 0.139 OD; OD at 490 nm [23]: 0.824 OD; OD at 490 nm [24]: 0.867 OD
3 | LAVSLGQRATISCRASQSVS [LAVSLGQRATISCRASQSVS (SEQ. ID. No. 16)] | 0.501 | 0.038 | 0.872 | 2.63 | 0.06 | 0.393 | 3.11 | 0.128 | 0.195 | 0.03 | 0.028 | 0.079 | 0.023 | 0.276 | 0.434 | 0.807 | 0.388 | 0.355 | 0.429 | 0.364 | OD at 490 nm [21]: 0.35 OD; OD at 490 nm [22]: 0.859 OD; OD at 490 nm [23]: 1.04 OD; OD at 490 nm [24]: 0.979 OD
4 | VKPGASVKISCKASGYSFTG (also called Peptide # 25) [VKPGASVKISCKASGYSFTG (SEQ. ID. No. 28)] | 0.359 | 0.05 | 0.897 | 2.65 | 0.096 | 0.319 | 3.13 | 0.097 | 0.159 | 0.115 | 0.036 | 0.058 | 0.034 | 0.569 | 0.766 | 0.845 | 0.298 | 0.217 | 0.359 | 0.312 | OD at 490 nm [21]: 0.329 OD; OD at 490 nm [22]: 0.302 OD; OD at 490 nm [23]: 1.21 OD; OD at 490 nm [24]: 1.18 OD
5 | CKASGYSFTGYNMNWVKQSH (also called Peptide # 26) [CKASGYSFTGYNMNWVKQSH (SEQ. ID. No. 29)] | 0.245 | 0.091 | 0.601 | 1.48 | 0.091 | 0.241 | 2.29 | 0.053 | 0.101 | 0.063 | 0.028 | 0.038 | 0.026 | 0.181 | 0.198 | 0.356 | 0.156 | 0.171 | 0.383 | 0.337 | OD at 490 nm [21]: 0.351 OD; OD at 490 nm [22]: 0.341 OD; OD at 490 nm [23]: 1.27 OD; OD at 490 nm [24]: 1.2 OD
